US20200024322A1 (Eli Lilly, published 2020)
Numbered stars: 1 amine (or outer) side, 2 acyl side, 3 side chain; on linkers, the order of the positions; unused ones are H or OH. Square brackets hold non-standard residues; d marks the D form. Side chains are listed from the residue outwards. Ends that are not written are not given here. * marks the point of attachment. C18 diacid = O=C(O)CCCCCCCCCCCCCCCCC(=O)*; γGlu = O=C(O)[C@H](CCC(=O)[*:2])N[*:1]; AEEA = NCCOCCOCC(=O)O; Aib = CC(C)(N)C(=O)O

T1: human GIP receptor (human, UniProt P48546 22-466)
T1 construct: whole, on cells; also called hGIPR; hGIP-R
T1 sequence (looked up): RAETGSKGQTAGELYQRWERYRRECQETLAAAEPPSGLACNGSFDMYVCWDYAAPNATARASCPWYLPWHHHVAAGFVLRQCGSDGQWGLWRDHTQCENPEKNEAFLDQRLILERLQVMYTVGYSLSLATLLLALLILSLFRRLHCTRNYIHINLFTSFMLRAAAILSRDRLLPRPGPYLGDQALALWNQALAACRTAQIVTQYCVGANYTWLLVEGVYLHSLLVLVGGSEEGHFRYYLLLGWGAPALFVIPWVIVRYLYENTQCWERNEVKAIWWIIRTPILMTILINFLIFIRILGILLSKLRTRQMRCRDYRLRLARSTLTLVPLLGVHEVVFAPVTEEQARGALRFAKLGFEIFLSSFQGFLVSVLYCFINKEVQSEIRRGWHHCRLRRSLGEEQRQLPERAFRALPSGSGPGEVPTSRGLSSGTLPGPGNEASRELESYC


Tests used:
human GIP receptor = biological target: T1, human GIP receptor; assay: [125I]-GIP competition SPA, hGIPR membranes
human glucagon receptor = biological target: T2, human glucagon receptor (human, UniProt P47871 26-477); assay: [125I]-Gcg competition SPA, hGcgR membranes
T2 construct: whole, on cells; also called hGcgR; GcgR

human GLP-1 receptor = biological target: T3, human GLP-1 receptor (human, UniProt P43220 24-463); assay: [125I]-GLP-1 competition SPA, hGLP-1R membranes
T3 construct: whole, on cells; also called hGLP-1R; hGLP1R
Method in brief: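 Kᵢ values are geometric means (SEM) over replicates run on separate days, derived from IC₅₀ of four-parameter curve fits. Buffer: HEPES 25 mM pH 7.4 with CaCl₂ 2.5 mM, MgCl₂ 1 mM, bacitracin 0.1%, TWEEN-20 0.003%, EDTA-free protease inhibitors.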

T2 sequence (P47871 26-477): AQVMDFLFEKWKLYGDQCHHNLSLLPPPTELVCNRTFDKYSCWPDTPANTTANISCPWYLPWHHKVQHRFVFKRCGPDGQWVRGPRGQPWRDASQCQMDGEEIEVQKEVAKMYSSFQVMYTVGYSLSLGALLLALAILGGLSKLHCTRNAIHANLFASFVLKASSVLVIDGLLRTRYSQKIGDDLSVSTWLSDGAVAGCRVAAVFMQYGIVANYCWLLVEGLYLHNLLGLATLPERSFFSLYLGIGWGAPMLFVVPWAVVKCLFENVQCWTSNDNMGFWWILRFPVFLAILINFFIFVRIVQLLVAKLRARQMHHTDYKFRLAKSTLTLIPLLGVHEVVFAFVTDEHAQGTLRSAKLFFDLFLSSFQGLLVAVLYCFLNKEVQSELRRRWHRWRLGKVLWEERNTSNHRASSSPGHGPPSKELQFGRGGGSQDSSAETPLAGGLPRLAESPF

Binder | Ki (human GIP receptor) | Ki (human glucagon receptor) | Ki (human GLP-1 receptor)
YXEGTXTSDYSIXLDEKAQXEFIXYLIEGGPSSGAPPPS (Aib2; αMeF6; Aib13; K17((2-[2-(2-Amino-ethoxy)-ethoxy]-acetyl)2-(γ-Glu)-CO-(CH2)18-CO2H); Aib20; D-Glu24; C-terminal NH2) [Example 225] | 0.0622 nM | 714 nM | 8.79 nM
YXEGTXTSDXSIXLDXKAQXAFIXXLIAGGPSSGAPPPS (Aib2; αMeF(2F)6; 4Pal10; αMeL13; Orn16; K17((2-[2-(2-Amino-ethoxy)-ethoxy]-acetyl)2-(εK)-CO-(CH2)18-CO2H); Aib20; D-Glu24; αMeY25; C-terminal NH2) [Example 252] | 0.00971 nM | 26 nM | 0.383 nM
YXEGTXTSDYSIXLDXKAQXEFIXXLIEGGPSSGAPPPS (Aib2; αMeF(2F)6; αMeL13; Orn16; K17((2-[2-(2-Amino-ethoxy)-ethoxy]-acetyl)2-(γ-Glu)-CO-(CH2)16-CO2H); Aib20; D-Glu24; αMeY25; C-terminal NH2) [Example 236] | 0.0425 nM | 200 nM | 1.05 nM
YXEGTXTSDLSIXLDXKAQXTFIXXLIEGGPSSGAPPPS (Aib2; αMeF(2F)6; αMeL13; Orn16; K17((2-[2-(2-Amino-ethoxy)-ethoxy]-acetyl)2-(γ-Glu)-CO-(CH2)16-CO2H); Aib20; D-Glu24; αMeY25; C-terminal NH2) [Example 243] | 0.0325 nM | 145 nM | 0.67 nM
YXEGTXTSDLSIXLDXKAQXAFIXXLIEGGPSSGAPPPS (Aib2; αMeF(2F)6; αMeL13; Orn16; K17((2-[2-(2-Amino-ethoxy)-ethoxy]-acetyl)2-(γ-Glu)-CO-(CH2)16-CO2H); Aib20; D-Glu24; αMeY25; C-terminal NH2) [Example 244] | 0.0308 nM | 87.8 nM | 0.82 nM
YXEGTXTSDYSIXLDKKAQXEFIXYLIEGGPSSGAPPPS (Aib2; αMeF(2F)6; αMeL13; K17((2-[2-(2-Amino-ethoxy)-ethoxy]-acetyl)2-(γ-Glu)-CO-(CH2)18-CO2H); Aib20; D-Glu24; C-terminal NH2) [Example 212] | 0.0978 nM | 205 nM | 2.76 nM
YXEGTXTSDYSIXLDHKAQXEFIXYLIEGGPSSGAPPPS (Aib2; αMeF(2F)6; αMeL13; K17((2-[2-(2-Amino-ethoxy)-ethoxy]-acetyl)2-(γ-Glu)-CO-(CH2)18-CO2H); Aib20; D-Glu24; C-terminal NH2) [Example 230] | 0.042 nM | 494 nM | 4.68 nM
YXEGTXTSDVSIXLDXKAQXAFIXXLIEGGPSSGAPPPS (Aib2; αMeF(2F)6; αMeL13; Orn16; K17((2-[2-(2-Amino-ethoxy)-ethoxy]-acetyl)2-(γ-Glu)-CO-(CH2)16-CO2H); Aib20; D-Glu24; αMeY25; C-terminal NH2) [Example 242] | 0.0604 nM | 95.9 nM | 0.853 nM
YXEGTXTSDYSIXLDKKAQXEFIXYLIEGGPSSGAPPPS (Aib2; αMeF(2F)6; αMeL13; K17((2-[2-(2-Amino-ethoxy)-ethoxy]-acetyl)2-(γ-Glu)-CO-(CH2)16-CO2H); Aib20; D-Glu24; C-terminal NH2) [Example 231] | 0.0394 nM | 440 nM | 3.03 nM
YXEGTXTSDVSIXLDXKAQXTFIXXLIEGGPSSGAPPPS (Aib2; αMeF(2F)6; αMeL13; Orn16; K17((2-[2-(2-Amino-ethoxy)-ethoxy]-acetyl)2-(γ-Glu)-CO-(CH2)16-CO2H); Aib20; D-Glu24; αMeY25; C-terminal NH2) [Example 241] | 0.042 nM | 167 nM | 0.799 nM
YXEGTXTSDXSIXLDXKAQXTFIXXLIEGGPSSGAPPPS (Aib2; αMeF(2F)6; 4Pal10; αMeL13; Orn16; K17((2-[2-(2-Amino-ethoxy)-ethoxy]-acetyl)2-(γ-Glu)-CO-(CH2)16-CO2H); Aib20; D-Glu24; αMeY25; C-terminal NH2) [Example 239] | 0.101 nM | 596 nM | 2.71 nM
Y[Aib]EGTFTSDYSILLDKK([AEEA-AEEA-γGlu-C18 diacid])AQKAFIEYLIEGGPSSG-NH2 (N-terminus assumed; SMILES CC[C@H](C)[C@H](NC(=O)[C@H](CC(C)C)NC(=O)[C@H](Cc1ccc(O)cc1)NC(=O)[C@H](CCC(=O)O)NC(=O)[C@@H](NC(=O)[C@H](Cc1ccccc1)NC(=O)[C@H](C)NC(=O)[C@H](CCCCN)NC(=O)[C@H](CCC(N)=O)NC(=O)[C@H](C)NC(=O)[C@H](CCCCNC(=O)COCCOCCNC(=O)COCCOCCNC(=O)CC[C@H](NC(=O)CCCCCCCCCCCCCCCCC(=O)O)C(=O)O)NC(=O)[C@H](CCCCN)NC(=O)[C@H](CC(=O)O)NC(=O)[C@H](CC(C)C)NC(=O)[C@H](CC(C)C)NC(=O)[C@@H](NC(=O)[C@H](CO)NC(=O)[C@H](Cc1ccc(O)cc1)NC(=O)[C@H](CC(=O)O)NC(=O)[C@H](CO)NC(=O)[C@@H](NC(=O)[C@H](Cc1ccccc1)NC(=O)[C@@H](NC(=O)CNC(=O)[C@H](CCC(=O)O)NC(=O)C(C)(C)NC(=O)[C@@H](N)Cc1ccc(O)cc1)[C@@H](C)O)[C@@H](C)O)[C@@H](C)CC)[C@@H](C)CC)C(=O)N[C@@H](CCC(=O)O)C(=O)NCC(=O)NCC(=O)N1CCC[C@H]1C(=O)N[C@@H](CO)C(=O)N[C@@H](CO)C(=O)NCC(N)=O) [Example 296] | 0.444 nM | – | 3.33 nM
YXEGTXTSDYSIXLDEKAQXEFIXYLIEGGPSSG (Aib2; αMeF(2F)6; αMeL13; K17((2-[2-(2-Amino-ethoxy)-ethoxy]-acetyl)2-(γ-Glu)-CO-(CH2)16-CO2H); Aib20; D-Glu24; C-terminal NH2) [Example 219] | 0.0689 nM | 373 nM | 2.01 nM
YXEGTFTSDYSIXLDKKAQXEFIEYLIEGGPSSG (Aib2; αMeL13; K17((2-[2-(2-Amino-ethoxy)-ethoxy]-acetyl)2-(γ-Glu)-CO-(CH2)16-CO2H); Aib20; C-terminal NH2) [Example 304] | 0.0499 nM | – | 4.44 nM
YXEGTFTSDYSIXLDKKAQXEFIEYLIAGGPSSG (Aib2; αMeL13; K17((2-[2-(2-Amino-ethoxy)-ethoxy]-acetyl)2-(γ-Glu)-CO-(CH2)16-CO2H); Aib20; C-terminal NH2) [Example 306] | 0.0349 nM | – | 2.86 nM
YXEGTXTSDYSIXLDKKAQXEFIXYLIEGGPSSG (Aib2; αMeF6; αMeL13; K17((2-[2-(2-Amino-ethoxy)-ethoxy]-acetyl)2-(γ-Glu)-CO-(CH2)18-CO2H); Aib20; D-Glu24; C-terminal NH2) [Example 228] | 0.028 nM | 182 nM | 2.43 nM
YXEGTFTSDYSILLDKKAQXAFIEYLIEGGPSSGAPPPS (Aib2; K17((2-[2-(2-Amino-ethoxy)-ethoxy]-acetyl)2-(γ-Glu)-CO-(CH2)16-CO2H); Aib20; C-terminal NH2) [Example 315] | 0.0677 nM | 539 nM | –
XXEGTFTSDYSIXLDKKAQXAFIXYLIAGGPSSGAPPPS (D-Tyr1; Aib2; αMeL13; K17((2-[2-(2-Amino-ethoxy)-ethoxy]-acetyl)2-(γ-Glu)-CO-(CH2)18-CO2H); Aib20; D-Glu24; C-terminal NH2) [Example 352] | 0.0726 nM | – | 3.03 nM
XXEGTFTSDYSIXLDKKAQXAFIXYLIEGGPSSGAPPPS (D-Tyr1; Aib2; αMeL13; K17((2-[2-(2-Amino-ethoxy)-ethoxy]-acetyl)2-(γ-Glu)-CO-(CH2)18-CO2H); Aib20; D-Glu24; C-terminal NH2) [Example 356] | 0.35 nM | – | 10.3 nM
